Legend:
[1] = Quantum yield determination; assay type: physicochemical; conditions: for Quant. Yield: Table 5, in PBS
Method in brief: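 Relative quantum yields in PBS, probe absorbance adjusted below 0.1, references IR-783 (0.043), fluorescein (0.18), Cy3 (0.31). Excitation/emission ranges: PN(783) 730 nm/765–870 nm; PN(545) 515 nm/538–700 nm; PN(497) 450 nm/475–620 nm, maximum emission used. Triplicate, mean±SD.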

[2] = test system: HT-29, a human colon carcinoma cell line; test: PN and peptide binding to cells (non-specific binding, FACS); assay type: cell-based; conditions: HT-29 cells, 30 min at 37° C., FACS
Method in brief: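 Cells seeded at 5×10^5 cells/well the day before, then rinsed and incubated 30 min at 37 °C in 2% FBS/DPBS (+Ca, +Mg) with nanoprobes (added as a 2 μM solution; concentration set spectrophotometrically via dye extinction coefficients). After trypsin/EDTA detachment, cell-associated fluorescence was read by FACS.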

[3] = PN pharmacokinetics, blood fluorescence fit to two-compartment model; assay type: in vivo, mouse; conditions: for Alpha half-life / Alpha rate / Beta half-life / Beta rate: nude mice, IV, 10 nmole, biexponential fit; for k elim half-life / k elim rate / k perm half-life / k perm rate / k vas return half-life / k vas return rate: two-compartment model micro constant
Method: Groups of 5 nude mice (female; 25-30 g; 6-8 weeks old; nu/nu) were injected (tail vein, IV) with 10 nmole of PN(783)4.3 or PN(783)10.0. 50 μl of blood was collected from tail tip at the indicated times. The blood was processed as above, and diluted (25 μl plasma, 700 μl of PBS). Fluorescence was measured with Cary Eclipse Fluorescence Spectrophotometer, excitation at 765 nm and emission from 790 to 880 nm. The fluorescence intensity at 806 nm was plotted over time, and the data was fit with two-phase decay curve. The fast and slow distribution half-life was given by the two-phase decay fit with Graphpad Prism software.
From the two-phase decay fit, a biexponential equation for blood concentration as a function of time, was obtained. By the relation of macro constants and micro constants, micro constants k's can be obtained, and the half-life was calculated by as described in Rosenbaum, S. E. Basic Pharmacokinetics and Pharmacodynamics: An Integrated Textbook and Computer Simulations, (John Wiley and Sons, Hoboken, N.J., 2011). The curve for interstitium concentration vs. time was fit with MATLAB based on the curve of blood concentration vs. time.
Serum fluorescence data from FIG. 24b and FIG. 24c was analyzed using the two-compartment model as described in Rosenbaum, S. E. Basic Pharmacokinetics and Pharmacodynamics: An Integrated Textbook and Computer Simulations, (John Wiley and Sons, Hoboken, N.J., 2011). Data were first fit to biexponential equation, yielding values of Alpha, Beta (apparent decay constants) and values of A and B as shown in equations 1 and 2 below.
By the relation of macro constants and micro constants, […]

[4] = Circulating form of PN's (FPLC of serum after IV injection); assay type: in vivo, mouse; conditions: nude mice, 20 nmoles
Method: 20 nmoles of PN(783)4.3, PN(783)6.1, or PN(783)10.0 was injected (IV, tail vein) into nude mice (female; 25-30 g; 6-8 weeks old; nu/nu). At the indicated time, 50 μl of blood was collected with microhematocrit capillary tube (Fisher Scientific) from the tail, and transferred to Eppendorf microcentrifuge tube with anticoagulant (EDTA) coating (Fisher Scientific). Tubes were centrifuged (5000 rpm for 5 minutes), and the supernatant was injected to the FPLC, a ÄKTA Purifier 10 with Superdex™ 200 10/300GL column.

In the case of “(DOTA)Lys(PEG30K)-Cys(IR-783) [PN(783)10.0]”, the “Quant. Yield” value [1] is reported as 0.16, the “Cell NSB (percent of cells with fluorescence higher than unstained cell)” value [2] is reported as 18% and the Alpha half-life [3] is reported as 30.6 min. It also gave an Alpha rate [3] of 1.36 h⁻¹, a Beta half-life [3] of 7.0 h and a Beta rate [3] of 0.099 h⁻¹. For the same substance, the k elim half-life [3] was 4.2 h, the k elim rate [3] was 0.24 h⁻¹ and the k perm half-life [3] was 61.2 min. For the same substance, the k perm rate [3] was 0.67 h⁻¹, the “k vas return half-life” value [3] was 73.8 min and the “k vas return rate” value [3] was 0.56 h⁻¹. The “circulating form after injection (FPLC elution vs pre-injection sample)” value [4] was “circulates at its pre-injection size”.
For “(DOTA)Lys(PEG5K)-Cys(IR-783) [PN(783)4.3]”, the “Quantum Yield” value ([1]; Table 3B, IR-783 dipeptides) was 0.17, the “Quant. Yield” value [1] was 0.16 and the “Cell NSB (percent of cells with fluorescence higher than unstained cell)” value [2] was 20%. The Alpha half-life [3] was 7.8 min, the Alpha rate [3] was 5.30 h⁻¹ and the Beta half-life [3] was 1.64 h. The Beta rate [3] was 0.42 h⁻¹, the k elim half-life [3] was 1.01 h and the k elim rate [3] was 0.68 h⁻¹. For the same substance, the k perm half-life [3] was 24 min, the k perm rate [3] was 1.74 h⁻¹ and the “k vas return half-life” value [3] was 12 min. For the same substance, the “k vas return rate” value [3] was 3.30 h⁻¹ and the “circulating form after injection (FPLC elution vs pre-injection sample)” value [4] was “identical for pre-injection samples and for sera from injected mice”.

From patent US20150258217A1, “Methods of Synthesizing and Using Peg-Like Fluorochromes” (THE GENERAL HOSPITAL CORPORATION, priority 2012, published 2015)
